Experimental data as given in PMC10089223 (Proceedings of the National Academy of Sciences of the …, 2022).
Where a chain is given by its changes, count along the chain named. Names may count otherwise.

B1: AtARF2-FL OPCA (D797-8S) (natural protein, Arabidopsis thaliana, UniProt Q94JM3 1-859, looked up)
chain: MASSEVSMKGNRGGDNFSSSGFSDPKETRNVSVAGEGQKSNSTRSAAAERALDPEAALYRELWHACAGPLVTVPRQDDRVFYFPQGHIEQVEASTNQAAEQQMPLYDLPSKLLCRVINVDLKAEADTDEVYAQITLLPEANQDENAIEKEAPLPPPPRFQVHSFCKTLTASDTSTHGGFSVLRRHADECLPPLDMSRQPPTQELVAKDLHANEWRFRHIFRGQPRRHLLQSGWSVFVSSKRLVAGDAFIFLRGENGELRVGVRRAMRQQGNVPSSVISSHSMHLGVLATAWHAISTGTMFTVYYKPRTSPSEFIVPFDQYMESVKNNYSIGMRFKMRFEGEEAPEQRFTGTIVGIEESDPTRWPKSKWRSLKVRWDETSSIPRPDRVSPWKVEPALAPPALSPVPMPRPKRPRSNIAPSSPDSSMLTREGTTKANMDPLPASGLSRVLQGQEYSTLRTKHTESVECDAPENSVVWQSSADDDKVDVVSGSRRYGSENWMSSARHEPTYTDLLSGFGTNIDPSHGQRIPFYDHSSSPSMPAKRILSDSEGKFDYLANQWQMIHSGLSLKLHESPKVPAATDASLQGRCNVKYSEYPVLNGLSTENAGGNWPIRPRALNYYEEVVNAQAQAQAREQVTKQPFTIQEETAKSREGNCRLFGIPLTNNMNGTDSTMSQRNNLNDAAGLTQIASPKVQDLSDQSKGSKSTNDHREQGRPFQTNNPHPKDAQTKTNSSRSCTKVHKQGIALGRSVDLSKFQNYEELVAELDRLFEFNGELMAPKKDWLIVYTDEENDMMLVGSSPWQEFCCMVRKIFIYTKEEVRKMNPGTLSCRSEEEAVVGEGSDAKDAKSASNPSLSSAGNS
B2: AtARF2-FL K2S (K737S) (natural protein, Arabidopsis thaliana, UniProt Q94JM3 1-859, looked up)
chain: B1 chain with K737S, S797D, S798D

Columns and labels:
[1] = target: AtARF2-DBD (DNA binding domain of Arabidopsis thaliana auxin response factor 2) (Arabidopsis thaliana)
[2] = target: the molecule itself
AtARF2-FL OPCA (D797-8S) = target: B1

Molecule | Kd [1] | Kd [2] | Kd (AtARF2-FL OPCA (D797-8S))
AtARF2-DBD (DNA binding domain of Arabidopsis thaliana auxin response factor 2) (domain or fragment) | 1900 nM |  | 
B1 |  | 410 nM | 
B2 |  | 230 nM | 16 nM
